Here are results for one substance from publication PMC3125217.

Common to all, as to experiment: inhibition of PE/PC monolayer binding (surface pressure, Wilhelmy technique); spectrin polypeptides preincubated 30 min at room temperature with ankSBD, then injected under a PE/PC 3:2 monolayer; 5 mM Tris/HCl pH 7.5, 0.5 mM EDTA, 150 mM NaCl, 0.5 mM dithiothreitol, 1 mM NaN3; 21°C
For experiment [1], the target named is ankBDn triple mutant SSSW (W1771S, L1775S, M1778S) (UniProt P11277).
Experiment [2] deals with ankBDn triple mutant CLSC (W1771C, M1778S, W1779C) (UniProt P11277).
The target of experiment [3] is recombinant ankyrin-binding domain of erythroid β-spectrin (ankBDn), wild type (UniProt P11277).

Consider “recombinant spectrin-binding domain of erythrocyte ankyrin (ankSBD) (from UniProt P16157 1-1881) (domain or fragment)”, for which the Ki in experiment [1] came to 0.2 nM; in experiment [2], 0.17 nM; in experiment [3], 0.15 nM.

The Ki is a dissociation constant, usually derived from enzyme kinetics or from competition with a known ligand.
